From patent publication US20160264664A1 (Ablynx, published 2016)
Numbering of substitutions follows the chain as printed.

Key:
[1] = biological target: T1, mouse P2X7 (mouse, UniProt Q9Z1M0 1-595); test: phage ELISA, mP2X7-CHO vs control CHO cells
T1 construct: on transfected CHO or Hek293 cells, or endogenous on Yac-1 cells; also called mP2X7; mouse purinoceptor P2X7
T1 sequence: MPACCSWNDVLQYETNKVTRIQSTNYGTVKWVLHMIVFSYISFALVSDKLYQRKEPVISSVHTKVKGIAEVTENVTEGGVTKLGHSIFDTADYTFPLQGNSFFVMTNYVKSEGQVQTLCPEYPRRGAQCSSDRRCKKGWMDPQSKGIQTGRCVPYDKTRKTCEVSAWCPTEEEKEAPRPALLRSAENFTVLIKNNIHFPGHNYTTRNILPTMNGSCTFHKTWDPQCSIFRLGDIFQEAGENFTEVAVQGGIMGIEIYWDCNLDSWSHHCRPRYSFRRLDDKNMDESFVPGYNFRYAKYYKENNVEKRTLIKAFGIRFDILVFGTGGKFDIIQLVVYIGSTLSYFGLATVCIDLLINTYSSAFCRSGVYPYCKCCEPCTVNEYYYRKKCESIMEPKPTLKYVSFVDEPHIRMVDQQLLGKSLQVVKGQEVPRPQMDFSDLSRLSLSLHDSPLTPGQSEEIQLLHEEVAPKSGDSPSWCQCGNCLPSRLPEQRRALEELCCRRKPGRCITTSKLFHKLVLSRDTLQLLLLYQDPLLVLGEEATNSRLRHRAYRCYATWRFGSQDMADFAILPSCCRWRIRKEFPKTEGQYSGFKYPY
Experimental: (§1) Sub-confluent cells were rinsed with PBS and fixed using 4% paraformaldehyde in PBS for 10 minutes at RT. Fixed cells were washed three times with PBS, and blocked with 2% BSA in PBS for 2 hours. Following blocking, 10-fold diluted culture supernatant containing phage was added and incubated for 1 hour. Cell-bound phage was detected via mouse anti-M13-HRP-conjugate (GE Healthcare, Cat nr. E2886). Rat mAb Hano43 was used as positive control.

[2] = biological target: T1, mouse P2X7; test: flow cytometry, periplasmic extract pre-incubated with anti-myc-FITC, on mP2X7-Hek293 cells;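 note: periplasmic extract diluted 10-fold and premixed 45 min at 4 °C with FITC anti-myc antibody, giving pseudo-bivalent Nanobodies, before binding to the cells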
Experimental: Ten-fold diluted PE were pre-incubation with 0.5 μg anti-myc FITC-conjugated antibodies (AbD Serotec, cat no. MCA2200F) (creating pseudo-bivalent Nanobodies in order to increase binding strength) in 0.1 ml PBS/10% FCS for 45 minutes at 4° C. […] Alternatively, sequential staining of 10-fold diluted PE with anti-myc FITC-conjugated antibodies was done after incubation with the cells.

[3] = biological target: T1, mouse P2X7; test: cell-based or functional assay
[4] = biological target: T1, mouse P2X7; test: phage ELISA on fixed mP2X7-CHO vs untransfected CHO cells;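 note: phage culture supernatant diluted 10-fold, applied for 1 h to paraformaldehyde-fixed, BSA-blocked cells in 96-well plates, with bound phage read via HRP-linked anti-M13 antibody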
Experimental: as §1

[5] = biological target: T2, human P2X7 (human, UniProt Q99572 1-595); test: flow cytometry, Nanobody pre-incubated with anti-Myc-FITC
T2 construct: on transfected Hek293 cells; also called hP2X7
T2 sequence: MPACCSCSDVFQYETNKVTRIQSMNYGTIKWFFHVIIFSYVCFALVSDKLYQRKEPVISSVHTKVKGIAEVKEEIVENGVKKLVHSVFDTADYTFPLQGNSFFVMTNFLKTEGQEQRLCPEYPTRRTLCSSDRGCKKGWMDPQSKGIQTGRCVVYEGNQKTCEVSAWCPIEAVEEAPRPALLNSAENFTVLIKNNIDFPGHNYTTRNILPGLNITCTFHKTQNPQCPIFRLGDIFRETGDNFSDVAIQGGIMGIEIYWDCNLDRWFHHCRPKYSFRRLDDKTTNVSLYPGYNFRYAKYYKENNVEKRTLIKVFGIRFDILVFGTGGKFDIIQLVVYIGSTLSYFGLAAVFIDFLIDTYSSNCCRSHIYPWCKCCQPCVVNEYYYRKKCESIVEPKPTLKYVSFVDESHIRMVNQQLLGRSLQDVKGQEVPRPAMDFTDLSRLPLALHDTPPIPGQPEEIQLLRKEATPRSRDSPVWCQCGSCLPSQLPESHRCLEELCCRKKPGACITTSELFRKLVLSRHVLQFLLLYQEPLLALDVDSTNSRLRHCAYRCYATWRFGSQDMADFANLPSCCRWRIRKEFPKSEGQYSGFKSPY

[6] = biological target: T3, human P2X4 (human, UniProt Q99571 1-388); test: as above
T3 construct: whole, on cells; also called hP2X4
T3 sequence (looked up): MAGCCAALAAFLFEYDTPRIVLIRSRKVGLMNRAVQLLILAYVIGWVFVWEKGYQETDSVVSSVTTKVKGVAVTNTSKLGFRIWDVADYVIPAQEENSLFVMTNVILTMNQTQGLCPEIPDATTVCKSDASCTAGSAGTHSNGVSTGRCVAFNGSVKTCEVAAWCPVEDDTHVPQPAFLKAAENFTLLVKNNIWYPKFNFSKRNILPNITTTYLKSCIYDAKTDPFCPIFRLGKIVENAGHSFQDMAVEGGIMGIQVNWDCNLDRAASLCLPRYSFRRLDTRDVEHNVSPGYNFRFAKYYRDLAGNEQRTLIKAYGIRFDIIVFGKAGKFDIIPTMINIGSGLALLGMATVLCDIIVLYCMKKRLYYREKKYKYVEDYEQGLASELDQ

[7] = biological target: T1, mouse P2X7; test: phage ELISA on fixed mP2X7-CHO vs untransfected CHO cells (minimally 2-fold)
Experimental: as §1

[8] = biological target: T1, mouse P2X7; test: Table A-1 'P2X7 function'; screening on mP2X7-expressing cells

B1: P2X7PMP8F5 (VHH)
VHH: EVQLVKSGGGLVQAGGSLRLSCAASGSFFRVNNMAWYRQAPGKQRELVADITRGDRTNYADSVNGRFTISRDNVRNTVYLQMNGLKPEDTAVYYCYARIELGPLVPRDYWGQGTQVTVSS
notes: family 5, 2; on phage or c-myc/His6-tagged in assays
absorption ratio (ELISA) [1]: 16 ratio
MFI FACS (pre-Myc incubation) [2]: 143 MFI
ATP IC50 by 2 uM NB (head prints 'mM'; ligand titration at fixed Nanobody, CD62L shedding, Yac-1 cells) [3]: 0.171 mM
IC50 (nM) against 20 uM NAD (CD62L shedding, Yac-1 cells) [3]: 579 nM
IC50 (nM) against 100 uM ATP (CD62L shedding, Yac-1 cells) [3]: 350 nM
Fold Cho P2X7/wt (phage ELISA) [4]: 16 fold
binding result [5]: no binding (tested: 147 nM)
binding result [6]: no binding (tested: 147 nM)

B2: P2X7PMP6D7 (VHH)
VHH: EVQLVESGGGLVQAGGSLRLSCAASGRTFSSLAMGWLRQAPGKEREFVSGISRGGTSTYYADSVKGRLTISRDNAKNTMYLQMNSLKPEDTAVYYCAGSPVLSIVLDTRGLEYWGQGTQVTVSS
notes: family 7; on phage or c-myc/His6-tagged in assays
binding result [7]: binds

B3: P2X7PMP4G4 (VHH)
VHH: EVQLMESGGGLVQAGGPLRLSCAASGRTVSDYGMGWFRQAPGKEREFVASINWSGTYTRYIDSVEGRFTISRDNTENTLYLQMNNLKAEDTAVYYCAYFLGPNWYSDYGRPSSYDFYGQGTQVTVSS
notes: family 4; on phage or c-myc/His6-tagged in assays
binding result [7]: binds

B4: P2X7PMP19A7 (VHH)
VHH: B3 VHH with E1K, M5V, P17S, E44L, T56I, E76K, K87R, D107N
notes: as for B3
binding result [7]: binds

B5: P2X7PMP19D12 (VHH)
VHH: B3 VHH with M5V, P17S, E44L, T56I, E76K, D107N, D115G
notes: as for B3
binding result [7]: binds

B6: P2X7PMP4G6 (VHH)
VHH: EVQLVESGGDVVQAGGSLRLSCLASGFTFDDYAIGWFRQAPGKEREGISCISSTGNVFYADSVKGRFTISSDKEKNTLYLQMNSLKPEDTAVYHCAAGHFTVDSGKVLLRTDVSSWGQGTQVTVSS
notes: family 1; on phage or c-myc/His6-tagged in assays
binding result [8]: binds

B7: P2X7PMP16H8 (VHH)
VHH: B6 VHH with F67L, V113I
notes: as for B6
binding result [8]: binds

B8: P2X7PMP20E8 (VHH)
VHH: B6 VHH with E88G, V113I
notes: as for B6
binding result [8]: binds

B9: P2X7PMP5F1 (VHH)
VHH: EVQLVESGGGLVQAGGSLRLSCAASERTYSMGWFRQAPGKEREFVAGSGWDGIPTRYADSVKGRFTISRDNAKNTVSLQMSGLKPEDTAIYYCATGTSVYHYQYWGQGTQVTVSS
notes: family 3; on phage or c-myc/His6-tagged in assays
binding result [8]: binds

B10: P2X7PMP5B1 (VHH)
VHH: B9 VHH with W105R
notes: as for B9
binding result [8]: binds

B11: P2X7PMP7F1 (VHH)
VHH: B9 VHH with N74S
notes: as for B9
binding result [8]: binds

B12: P2X7PMP7F3 (VHH)
VHH: B9 VHH with G8R, G63S
notes: as for B9
binding result [8]: binds

B13: P2X7PMP11A1 (VHH)
VHH: B9 VHH with M31V, I53T
notes: as for B9
binding result [8]: binds

B14: P2X7PMP11D3 (VHH)
VHH: B9 VHH with A14P
notes: as for B9
binding result [8]: binds

B15: P2X7PMP11G1 (VHH)
VHH: B9 VHH with Q36R
notes: as for B9
binding result [8]: binds

B16: P2X7PMP13B2 (VHH)
VHH: B9 VHH with T75A
notes: as for B9
binding result [8]: binds

B17: P2X7PMP7F9 (VHH)
VHH: EVQLVESGGGLVQAGASLRVSCAASARTGSYTMGWFRQAPGKEREFVSTISWNGASTVYADSVKGRFTISRDNAKNTVSLQMNSLKPEDTAVYYCAGSISSYSSRWQDDYEYWGQGTQVTVSS
notes: family 9; on phage or c-myc/His6-tagged in assays
binding result [8]: binds

B18: P2X7PMP7D8 (VHH)
VHH: EVQLVESGGGLVQPGGSLRLSCAASGLTLEYYNIGWFRQAPGKEREGVACIDWTEGSTFYVDSVKGRFTISTDNAKNTVYLHMNSLEPEDTAVYYCAAGWGRVITVQHMCADRSLFTSWGQGTQVTVSS
notes: family 13; on phage or c-myc/His6-tagged in assays
binding result [8]: binds

B19: P2X7PMP20H9 (VHH)
VHH: EVQLVESGGRVMQTGGSLRLSCAASGHTFNDYSMGWFRQAPGKELEFLAGINWSGMSTWYADSVKDRFTISRDNNKNTVFLQMNSLEPGDTAVYYCAARQWISTIILTAPSQYDYWGQGTQVTVSS
notes: family 24; on phage or c-myc/His6-tagged in assays
binding result [8]: binds

B20: P2X7PMP18A7 (VHH)
VHH: EVQLVESGGDLVQPGGSLRLSCVASGFALEEHAIGWFRQAPGKEREGVSLSSYVGAVYYATSVKGRFTISRDNAKNTVYLQMNSLKPEDTAVYYCARGHFTYDDGRISIRSVDHWGKGTLVTVSS
notes: family 25; on phage or c-myc/His6-tagged in assays
absorption ratio (ELISA) [1]: 14 ratio
MFI FACS (pre-Myc incubation) [2]: 69 MFI
Fold Cho P2X7/wt (phage ELISA) [4]: 14 fold
binding result [5]: no binding (tested: 147 nM)
binding result [6]: no binding (tested: 147 nM)

B21: P2X7PMP18D12 (VHH)
VHH: EVQLVESGGDLVQAGGSLKLSCVVSGVTFDDGTIGWFRQAPGKEREGIACISRVDGTTYYRDSVKGRFTVSSDSAKTTVNLQMNSLKPEDTAVYYCAADYASLCTIETGYGSLYDYWGRGTQVTVSS
notes: family 6; on phage or c-myc/His6-tagged in assays
binding result [8]: binds

B22: P2X7PMP4B3 (VHH)
VHH: B21 VHH with R119K
notes: as for B21
binding result [8]: binds

B23: P2X7PMP19H4 (VHH)
VHH: EVQLVESGGGLVQAGGSLRLSCVASGRTLSTAVMGWFRQAPGKERGLVAMISWSGSMTYYAKSVKGRFTISRDNAKNTMYLQMNSLKPEDTAVYYCAADMGGGPPDGDAMPRLSSGMDYWGKGTLVTVSS
notes: family 26; on phage or c-myc/His6-tagged in assays
binding result [8]: binds

B24: P2X7PMP16G3 (VHH)
VHH: EVQLVESGGGLVQAGGSLRLSCAASGNDFARFSIDAMGWYRQAPGKQRELVATVTEDGTKNYADSVKGRATISRDDANNSMYLEMNTLKPEDTAVYYCKMGGLIDGAAPYEFWGRGTQVTVSS
notes: family 27; on phage or c-myc/His6-tagged in assays
binding result [8]: binds

B25: P2X7PMP15C7 (VHH)
VHH: EMQLVESGGGWVQAGGSLRLSCASSGSIFSAGAMGWYRQPAGKQRELVADITLGGSTNYADSVKGRFTISRDNAKNAVFLQMNSLKPEDTAVYYCNGLINTFARKIPRYAWGQGTQVTVSS
notes: family 28; on phage or c-myc/His6-tagged in assays
binding result [8]: binds

B26: P2X7PMP16F5 (VHH)
VHH: EVQLVESGGGLVQAGGSLRLSCAASGPTTFGRYTMGWFRQAPGREREFVAAISWIGGRTYYVDVVKGRFTISRDNAKKMVYLQMNSLKPDDTAVYHCAAAFQALGSPREYDYWGQGTQVTVSS
notes: family 29; on phage or c-myc/His6-tagged in assays
binding result [8]: binds
